According to publication PMC8812994:

Target: rMjShoc2 (recombinant MjShoc2) (Marsupenaeus japonicus)
Experiment: ITC; MICROCAL PEAQ-ITC; rFlaA (2 mM) in the syringe, rMjShoc2 (0.2 mM) in the cell; 2 μl injections, 25°C; one set of sites model

**Q.** “rFlaA (recombinant FlaA of the ITC assay) (from UniProt Q60246 1-379) (natural protein)” was tested. Which Kd did it give?
**A.** The Kd was 10 µM.
